Laboratory results: patent publication US20130130922A1, “ANALYSIS OF METHYLATION SITES” (Centre for Addiction and Mental Health, priority 2011, published 2013)

Test system: Control-H reference system (specific and nonspecific 200 bp DNA fragments from pBR322)
Experiment: mTAG labeling, biotinylation, capture on streptavidin beads and multiplex real-time PCR of Control-H reference system
Conditions: Control-H alone; Ado-11-amine cofactor; 228 nM enzyme; 37° C. 2 hours; percentage of material used for bead separation

B1: HpaII (Q104A/N335A): His6-tagged M.HpaII C5 DNA methyltransferase (CCGG target site) double-alanine mutant Q104A/N335A (protein, UniProt P15446 1-358, looked up, variant Q104A N335A)
Type II methyltransferase …: MKDVLDDNLLEEPAAQYSLFEPESNPNLREKFTFIDLFAGIGGFRIAMQNLGGKCIFSSEWDEQAQKTYEANFGDLPYGDITLEETKAFIPEKFDILCAGFPCAAFSIAGKRGGFEDTRGTLFFDVAEIIRRHQPKAFFLENVKGLKNHDKGRTLKTILNVLREDLGYFVPEPAIVNAKNFGVPQNRERIYIVGFHKSTGVNSFSYPEPLDKIVTFADIREEKTVPTKYYLSTQYIDTLRKHKERHESKGNGFGYEIIPDDGIANAIVVGGMGRERNLVIDHRITDFTPTTNIKGEVNREGIRKMTPREWARLQGFPDSYVIPVSDASAYKQFGASVAVPAIQATGKKILEKLGNLYD
modifications: His6 tag
- level of nonspecific probe found on beads: 5-6%
- yield of unmethylated (specific) probe recovered on beads: 50-60%
